Source: doi:10.1101/2021.08.20.457142

B1: MKK7 D-site peptide (second D-site) / JNK1 alpha1 (MAPK8 isoform 1) L198A, full length (parent complex)
chain 1: SQPQRPRPTLQLPLANEAFEQP
chain 2: MSRSKRDNNFYSVEIGDSTFTVLKRYQNLKPIGSGAQGIVCAAYDAILERNVAIKKLSRPFQNQTHAKRAYRELVLMKCVNHKNIIGLLNVFTPQKSLEEFQDVYIVMELMDANLCQVIQMELDHERMSYLLYQMLCGIKHLHSAGIIHRDLKPSNIVVKSDCTLKILDFGLARTAGTSFMMTPYVVTRYYRAPEVIAGMGYKENVDLWSVGCIMGEMVCHKILFPGRDYIDQWNKVIEQLGTPCPEFMKKLQPTVRTYVENRPKYAGYSFEKLFPDVLFPADSEHNKLKASQARDLLSKMLVIDASKRISVDEALQHPYINVWYDPSEAEAPPPKIPDKQLDEREHTIEEWKELIYKEVMDLEERTKNGVIRGQPSPLAQVQQ

Variants of: B1

screen value | Variant
1.32 Z-score of the enrichment rate within one screen of 711 sequences | chain 1 Q4A, chain 1 T9A
1.43 Z-score of the enrichment rate within one screen of 711 sequences | chain 1 Q11M
1.59 Z-score of the enrichment rate within one screen of 711 sequences | chain 1 Q11R
1.38 Z-score of the enrichment rate within one screen of 711 sequences | chain 1 Q11V
1.71 Z-score of the enrichment rate within one screen of 711 sequences | chain 1 Q11D
1.67 Z-score of the enrichment rate within one screen of 711 sequences | chain 1 Q11L
1.58 Z-score of the enrichment rate within one screen of 711 sequences | chain 1 Q11K
0.112 Z-score of the enrichment rate within one screen of 711 sequences | chain 1 R7A, chain 1 T9A
2 Z-score of the enrichment rate within one screen of 711 sequences | chain 1 Q4R
1.28 Z-score of the enrichment rate within one screen of 711 sequences | chain 1 Q4N
1.45 Z-score of the enrichment rate within one screen of 711 sequences | chain 1 Q4T
1.2 Z-score of the enrichment rate within one screen of 711 sequences | chain 1 Q4W
1.4 Z-score of the enrichment rate within one screen of 711 sequences | chain 1 Q4E
1.12 Z-score of the enrichment rate within one screen of 711 sequences | chain 1 Q4M
1.59 Z-score of the enrichment rate within one screen of 711 sequences | chain 1 Q4H
1.26 Z-score of the enrichment rate within one screen of 711 sequences | chain 1 Q4G
1.48 Z-score of the enrichment rate within one screen of 711 sequences | chain 1 Q4A
2.02 Z-score of the enrichment rate within one screen of 711 sequences | chain 1 Q4S
-0.309 Z-score of the enrichment rate within one screen of 711 sequences | chain 1 Q4A, chain 1 L12A
0.166 Z-score of the enrichment rate within one screen of 711 sequences | chain 1 R7A, chain 1 P13A

screen value | Variant
1.41 Z-score of the enrichment rate within one screen of 711 sequences | chain 1 P13Y
0.562 Z-score of the enrichment rate within one screen of 711 sequences | chain 1 Q4A, chain 1 L14A
1.43 Z-score of the enrichment rate within one screen of 711 sequences | chain 1 Q4A, chain 1 Q11A
1.19 Z-score of the enrichment rate within one screen of 711 sequences | chain 1 T9A, chain 1 Q11A
-0.455 Z-score of the enrichment rate within one screen of 711 sequences | chain 1 R7A, chain 1 L10A
0.044 Z-score of the enrichment rate within one screen of 711 sequences | chain 1 R7A, chain 1 Q11A
0.716 Z-score of the enrichment rate within one screen of 711 sequences | chain 1 Q11A, chain 1 L14A
0.479 Z-score of the enrichment rate within one screen of 711 sequences | chain 1 R5A, chain 1 N16A
1.09 Z-score of the enrichment rate within one screen of 711 sequences | chain 1 Q4A, chain 1 P6A
0.245 Z-score of the enrichment rate within one screen of 711 sequences | chain 1 R7Y
0.638 Z-score of the enrichment rate within one screen of 711 sequences | chain 1 R7T
-0.155 Z-score of the enrichment rate within one screen of 711 sequences | chain 1 R7S
0.435 Z-score of the enrichment rate within one screen of 711 sequences | chain 1 R7H
0.232 Z-score of the enrichment rate within one screen of 711 sequences | chain 1 R7C
-0.584 Z-score of the enrichment rate within one screen of 711 sequences | chain 1 R7D
0.391 Z-score of the enrichment rate within one screen of 711 sequences | chain 1 R7W
-0.605 Z-score of the enrichment rate within one screen of 711 sequences | chain 1 Q11A, chain 1 L12A
1.16 Z-score of the enrichment rate within one screen of 711 sequences | chain 1 Q11A, chain 1 N16A
0.774 Z-score of the enrichment rate within one screen of 711 sequences | chain 1 T9A, chain 1 N16A
0.13 Z-score of the enrichment rate within one screen of 711 sequences | chain 1 T9A, chain 1 L14A

screen value | Variant
0.604 Z-score of the enrichment rate within one screen of 711 sequences | chain 1 R5N
1.01 Z-score of the enrichment rate within one screen of 711 sequences | chain 1 R5T
0.716 Z-score of the enrichment rate within one screen of 711 sequences | chain 1 R5M
1.12 Z-score of the enrichment rate within one screen of 711 sequences | chain 1 R5F
1.01 Z-score of the enrichment rate within one screen of 711 sequences | chain 1 R5Q
0.688 Z-score of the enrichment rate within one screen of 711 sequences | chain 1 R5H
0.242 Z-score of the enrichment rate within one screen of 711 sequences | chain 1 R5G
1.36 Z-score of the enrichment rate within one screen of 711 sequences | chain 1 R5K
0.699 Z-score of the enrichment rate within one screen of 711 sequences | chain 1 R5C
1.59 Z-score of the enrichment rate within one screen of 711 sequences | chain 1 T9R
0.775 Z-score of the enrichment rate within one screen of 711 sequences | chain 1 T9P
1.85 Z-score of the enrichment rate within one screen of 711 sequences | chain 1 T9N
0.998 Z-score of the enrichment rate within one screen of 711 sequences | chain 1 T9A
1.65 Z-score of the enrichment rate within one screen of 711 sequences | chain 1 T9K
0.933 Z-score of the enrichment rate within one screen of 711 sequences | chain 1 T9D
1.12 Z-score of the enrichment rate within one screen of 711 sequences | chain 1 T9V
0.628 Z-score of the enrichment rate within one screen of 711 sequences | chain 1 T9G
1.93 Z-score of the enrichment rate within one screen of 711 sequences | chain 1 T9I
1.4 Z-score of the enrichment rate within one screen of 711 sequences | chain 1 T9S

The remaining lines, values behind:

Variant | screen value
chain 1 L12A, chain 1 N16A | -0.599 Z-score of the enrichment rate within one screen of 711 sequences
chain 1 P3A, chain 1 L10A | -0.251 Z-score of the enrichment rate within one screen of 711 sequences
chain 1 P3H | 1.27 Z-score of the enrichment rate within one screen of 711 sequences
chain 1 P3Y | 1.41 Z-score of the enrichment rate within one screen of 711 sequences
chain 1 P3E | 1.21 Z-score of the enrichment rate within one screen of 711 sequences
chain 1 P3R | 1.66 Z-score of the enrichment rate within one screen of 711 sequences
chain 1 P3T | 1.7 Z-score of the enrichment rate within one screen of 711 sequences
chain 1 P3K | 1.42 Z-score of the enrichment rate within one screen of 711 sequences
chain 1 P3C | 1.42 Z-score of the enrichment rate within one screen of 711 sequences
chain 1 P3A | 1.42 Z-score of the enrichment rate within one screen of 711 sequences
chain 1 P3L | 1.07 Z-score of the enrichment rate within one screen of 711 sequences
chain 1 P3G | 1.4 Z-score of the enrichment rate within one screen of 711 sequences
chain 1 P13T | 1.03 Z-score of the enrichment rate within one screen of 711 sequences
chain 1 P13R | 1.24 Z-score of the enrichment rate within one screen of 711 sequences
chain 1 P13A | 1.14 Z-score of the enrichment rate within one screen of 711 sequences
chain 1 P13E | 1.34 Z-score of the enrichment rate within one screen of 711 sequences
chain 1 P13F | 1.62 Z-score of the enrichment rate within one screen of 711 sequences
chain 1 P13W | 1.26 Z-score of the enrichment rate within one screen of 711 sequences
chain 1 P13I | 0.957 Z-score of the enrichment rate within one screen of 711 sequences
chain 1 P6A, chain 1 Q11A | 1.17 Z-score of the enrichment rate within one screen of 711 sequences
chain 1 P8A, chain 1 N16A | 0.523 Z-score of the enrichment rate within one screen of 711 sequences
chain 1 P8A, chain 1 L12A | -0.717 Z-score of the enrichment rate within one screen of 711 sequences
chain 1 P3A, chain 1 R7A | 0.212 Z-score of the enrichment rate within one screen of 711 sequences

Variant | screen value
chain 1 P3A, chain 1 P13A | 1.51 Z-score of the enrichment rate within one screen of 711 sequences
chain 1 P6W | 1.02 Z-score of the enrichment rate within one screen of 711 sequences
chain 1 P6I | 1.35 Z-score of the enrichment rate within one screen of 711 sequences
chain 1 P6D | 0.975 Z-score of the enrichment rate within one screen of 711 sequences
chain 1 P6E | 1.2 Z-score of the enrichment rate within one screen of 711 sequences
chain 1 P6S | 0.764 Z-score of the enrichment rate within one screen of 711 sequences
chain 1 P6R | 1.25 Z-score of the enrichment rate within one screen of 711 sequences
chain 1 P6G | 0.655 Z-score of the enrichment rate within one screen of 711 sequences
chain 1 P3A, chain 1 L14A | 0.559 Z-score of the enrichment rate within one screen of 711 sequences
chain 1 N16F | 1.8 Z-score of the enrichment rate within one screen of 711 sequences
chain 1 N16Y | 1.82 Z-score of the enrichment rate within one screen of 711 sequences
chain 1 N16K | 1.7 Z-score of the enrichment rate within one screen of 711 sequences
chain 1 N16D | 1.03 Z-score of the enrichment rate within one screen of 711 sequences
chain 1 N16M | 1.27 Z-score of the enrichment rate within one screen of 711 sequences
chain 1 N16R | 1.4 Z-score of the enrichment rate within one screen of 711 sequences
chain 1 N16I | 1.55 Z-score of the enrichment rate within one screen of 711 sequences
chain 1 A15P | 1.61 Z-score of the enrichment rate within one screen of 711 sequences
chain 1 A15M | 1.57 Z-score of the enrichment rate within one screen of 711 sequences
chain 1 A15H | 1.57 Z-score of the enrichment rate within one screen of 711 sequences
chain 1 A15L | 1.8 Z-score of the enrichment rate within one screen of 711 sequences
chain 1 A15R | 1.69 Z-score of the enrichment rate within one screen of 711 sequences
chain 1 A15G | 1.63 Z-score of the enrichment rate within one screen of 711 sequences
chain 1 A15Y | 1.64 Z-score of the enrichment rate within one screen of 711 sequences

Variant | screen value
chain 1 P13A, chain 1 L14A | 0.556 Z-score of the enrichment rate within one screen of 711 sequences
chain 1 L14N | 0.512 Z-score of the enrichment rate within one screen of 711 sequences
chain 1 L14G | 0.653 Z-score of the enrichment rate within one screen of 711 sequences
chain 1 L14W | 1.36 Z-score of the enrichment rate within one screen of 711 sequences
chain 1 L14Q | 0.637 Z-score of the enrichment rate within one screen of 711 sequences
chain 1 L14S | 0.942 Z-score of the enrichment rate within one screen of 711 sequences
chain 1 L14C | 1.27 Z-score of the enrichment rate within one screen of 711 sequences
chain 1 L14V | 0.826 Z-score of the enrichment rate within one screen of 711 sequences
chain 1 L14E | 0.365 Z-score of the enrichment rate within one screen of 711 sequences
chain 1 L14M | 0.805 Z-score of the enrichment rate within one screen of 711 sequences
chain 1 P8D | 0.613 Z-score of the enrichment rate within one screen of 711 sequences
chain 1 P8T | 0.655 Z-score of the enrichment rate within one screen of 711 sequences
chain 1 P8Y | 0.574 Z-score of the enrichment rate within one screen of 711 sequences
chain 1 P8G | 0.304 Z-score of the enrichment rate within one screen of 711 sequences
chain 1 P8R | 0.631 Z-score of the enrichment rate within one screen of 711 sequences
chain 1 P8S | 0.564 Z-score of the enrichment rate within one screen of 711 sequences
chain 1 P8H | 0.889 Z-score of the enrichment rate within one screen of 711 sequences
chain 1 L10A, chain 1 L12A | -0.511 Z-score of the enrichment rate within one screen of 711 sequences
chain 1 P6A, chain 1 T9A | 1.16 Z-score of the enrichment rate within one screen of 711 sequences
chain 1 P6A, chain 1 N16A | 1.19 Z-score of the enrichment rate within one screen of 711 sequences
chain 1 P3A, chain 1 Q4A | 1.61 Z-score of the enrichment rate within one screen of 711 sequences
chain 1 L10A, chain 1 N16A | -0.696 Z-score of the enrichment rate within one screen of 711 sequences
chain 1 L12Y | -0.861 Z-score of the enrichment rate within one screen of 711 sequences

Variant | screen value
chain 1 L12D | -0.686 Z-score of the enrichment rate within one screen of 711 sequences
chain 1 L12K | -0.431 Z-score of the enrichment rate within one screen of 711 sequences
chain 1 L12W | 0.774 Z-score of the enrichment rate within one screen of 711 sequences
chain 1 L12F | 0.226 Z-score of the enrichment rate within one screen of 711 sequences
chain 1 L12H | -0.33 Z-score of the enrichment rate within one screen of 711 sequences
chain 1 L12M | 0.011 Z-score of the enrichment rate within one screen of 711 sequences
chain 1 L12T | -0.304 Z-score of the enrichment rate within one screen of 711 sequences
chain 1 L12S | -0.194 Z-score of the enrichment rate within one screen of 711 sequences
chain 1 L12R | -0.521 Z-score of the enrichment rate within one screen of 711 sequences
chain 1 L14A, chain 1 N16A | 0.658 Z-score of the enrichment rate within one screen of 711 sequences
chain 1 P6A, chain 1 P8A | 0.889 Z-score of the enrichment rate within one screen of 711 sequences
chain 1 P3S, chain 1 Q4K | 1.43 Z-score of the enrichment rate within one screen of 711 sequences
chain 1 L10K | -0.134 Z-score of the enrichment rate within one screen of 711 sequences
chain 1 L10W | -0.417 Z-score of the enrichment rate within one screen of 711 sequences
chain 1 L10D | -0.874 Z-score of the enrichment rate within one screen of 711 sequences
chain 1 L10I | 0.256 Z-score of the enrichment rate within one screen of 711 sequences
chain 1 L10F | 0.606 Z-score of the enrichment rate within one screen of 711 sequences
chain 1 L10Y | -0.115 Z-score of the enrichment rate within one screen of 711 sequences
chain 1 L10E | -0.301 Z-score of the enrichment rate within one screen of 711 sequences
chain 1 L10M | 1.08 Z-score of the enrichment rate within one screen of 711 sequences
chain 1 L10Q | -0.301 Z-score of the enrichment rate within one screen of 711 sequences
chain 1 L10H | -0.321 Z-score of the enrichment rate within one screen of 711 sequences
